Reference: patent US20260034217A1 (REGENTS OF THE UNIVERSITY OF COLORADO A BODY CORPORATE, published 2026)

Target: CD64 (high affinity immunoglobulin gamma Fc receptor I) (human, UniProt P12314 16-374)
Assay: cell-based or functional assay

Chain of CD64 (high affinity immunoglobulin gamma Fc receptor I) (P12314 16-374, form in doubt): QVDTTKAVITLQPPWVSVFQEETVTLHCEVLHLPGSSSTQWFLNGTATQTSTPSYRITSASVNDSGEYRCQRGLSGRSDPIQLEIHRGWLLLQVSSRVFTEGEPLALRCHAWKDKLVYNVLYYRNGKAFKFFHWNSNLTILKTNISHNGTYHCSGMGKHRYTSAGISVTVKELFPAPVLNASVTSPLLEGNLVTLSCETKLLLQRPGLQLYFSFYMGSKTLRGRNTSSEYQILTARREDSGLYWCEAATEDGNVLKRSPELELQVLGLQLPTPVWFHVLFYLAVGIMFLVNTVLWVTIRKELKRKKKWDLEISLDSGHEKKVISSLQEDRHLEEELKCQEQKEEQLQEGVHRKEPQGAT

fold decrease in CD64+ AML cells (monocytic patient sample), flow cytometry, CAR-T with or without ven/aza: > 40 fold
B1: CD64-BB-m22 CAR (CD64 CAR containing the m22 scFv and a 4-1BB costimulatory domain) (other)
chain: EVQLVESGGGLVKPGGSLRLSCVASGFIFSDNYMYWVRQTPEKRLEWVATISDGGSYTYYPDSVKGRFTISRDNAKNNLYLQMSSLKSEDTAIYYCARGYYRYEGAMDYWGQGTSVTVSSGGGGSGGGGSGGGGSNIVMTQSPSSLAVSAGEKVTMSCKSSQSVLYSSNQKNYLAWYQQKPGQSPKLLIYWASTRESGVPDRFTGSGSGTDFTLTISSVQAEDLAVYYCHQYLSSWTFGGGTKLEIKTSTTTPAPRPPTPAPTIASQPLSLRPEACRPAAGGAVHTRGLDFACDIYIWAPLAGTCGVLLLSLVITLYCKRGRKKLLYIFKQPFMRPVQTTQEEDGCSCRFPEEEEGGCELSRVKFSRSADAPAYQQGQNQLYNELNLGRREEYDVLDKRRGRDPEMGGKPRRKNPQEGLYNELQKDKMAEAYSEIGMKGERRRGKGHDGLYQGLSTATKDTYDALHMQALPPR
fold decrease in viable AML cells (mixed monocytic/primitive patient sample), flow cytometry after 48 hours with CAR-T cells alone: 4.2 fold
